The target in this experiment is T1, TNFRSF17 (Q02223), i.e., BCMA (UniProt Q02223 1-184).
T1 construct: whole, on cells; also called B cell maturation antigen; CD269
T1 sequence (looked up): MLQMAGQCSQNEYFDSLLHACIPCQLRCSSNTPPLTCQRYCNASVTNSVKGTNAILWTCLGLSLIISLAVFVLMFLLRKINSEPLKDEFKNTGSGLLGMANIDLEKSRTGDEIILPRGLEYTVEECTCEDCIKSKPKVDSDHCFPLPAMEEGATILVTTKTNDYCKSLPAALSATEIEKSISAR
Description: flow cytometry, HEK293T membrane protein array, 20 ug/mL. How it is done:
The light chain variable region of SEQ ID NO: 1 and the heavy chain variable region of SEQ ID NO: 2 were used to prepare a single chain antibody B20-scFv-rabFc, and membrane protein array experiment was performed.
20 ug/mL of B20-scFv-rabFc was added to HEK293T cell array transiently transfected with 5344 membrane proteins, respectively.
Background: A flow cytometer gives signals particle by particle.

B1: B20-scFv-rabFc (Fc fusion)
scFv: DIQMTQSPSSLSASVGDRVTITCRASQGISNYLNWYQQKPGKAPKPLIYYTSNLQSGVPSRFSGSGSGTDYTLTISSLQPEDFATYYCMGQTISSYTFGQGTKLEIKGGGGSGGGGSGGGGSEVQLVESGGGLVQPGGSLRLSCAASGFTFSNFDMAWVRQAPGKGLVWVSSITTGADHAIYADSVKGRFTISRDNAKNTLYLQMNSLRAEDTAVYYCVRHGYYDGYHLFDYWGQGTLVTVSS
notes: not shown: rabbit Fc (rabFc)
For the molecule B1, the binding result is “binds”.
